“And” between values parts separate entries of the source, which are not always exact repeats. Equal values may be shown once. Read-outs that look alike come from different tables or passages of the source.
Legend:
Acanthamoeba actin [1] = target: Acanthamoeba actin (Acanthamoeba); experiment: critical concentration of actin polymerization at steady state
[2] = target: Rabbit skeletal muscle actin (rabbit, UniProt P68135 1-377); experiment: inhibition of actin polymerization by profilin
Acanthamoeba actin [3] = target: Acanthamoeba actin (Acanthamoeba)

B1: Acanthamoeba profilin (natural protein)
chain: SWQTYVDTNLVGTGAVTQAAILGLDGNTWATSAGFAVTPAQGQTLASAFNNADPIRASGFDLAGVHYVTLRADDRSIYGKKGSAGVITVKTSKSILVGVYNEKIQPGTAANVVEKLADYLIGQGF
For B1, the Kd (Acanthamoeba actin [1]) was 0.9 µM and 1.4 µM and 1.3 µM, the Kd [2] was > 30 µM and the Kd (Acanthamoeba actin [3]) was 4 µM and 3.1 µM and 3.7 µM.

Source: publication PMC2112199 (The Journal of Cell Biology, 1982)
